Read-outs that look alike come from different tables or passages of the source.
B1: ZKA25 (antibody, V domains shown)
VH: EVQLVESGGGLVRPGGSLRLSCAASGFTFRSHWMSWVRQAPGKGLEWVANIKEDGYEKYYVDSVKGRFTISRDNAKNSLYLQMKSLRAEDTAVYYCARDLRVYSGRGFDPWGQGTLVTVSS
VL: not shown
B2: ZKA15 (antibody, V domains shown)
VH: QVQLQESGPGLVKPSETLSLTCTVSGGFINSYYWSWIRQPAGKGLEWIGRIYKSGSTNYNPSLKSRVTMSLDTSKYQFSLKLRSVTAADTAVYYCARDPYGDYVKAFDIWGQGTMVTVSS
VL: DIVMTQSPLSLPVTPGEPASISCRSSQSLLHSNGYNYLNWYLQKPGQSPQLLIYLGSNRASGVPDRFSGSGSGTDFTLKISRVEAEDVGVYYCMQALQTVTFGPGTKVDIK
B3: ZKA35 (antibody, V domains shown)
VH: QVQLQESGPGLVKPSQTLSLTCTVSGGSISTGGYYWSWIRQHPGKGLEWIGYIYYSGNTYYNPSLKSRVTISVDTSKKQFSLKLSSVTAADTAVYYCAKGGGRERPFDYWGQGTLVTVSS
VL: QSVLTQPPSASGTPGQRVTISCSGSSSNIGRNYVDWYQQLPGTAPKLLIYRNNQRPSGVPERFSGSKSGTSASLAISGLRSEDEADYYCVAWDDSRSGFVVFGGGTKVTVL

Experiments:
Test in all cases: ELISA
ZIKV NS1 [1] = molecular target: ZIKV NS1 (Zika virus (ZIKV))
ZIKV NS1 [2] = molecular target: ZIKV NS1 (Zika virus (ZIKV)); remark: listed apart in the source
JEV NS1 = molecular target: JEV NS1
YFV NS1 = molecular target: YFV NS1
TBEV NS1 = molecular target: TBEV NS1
WNV NS1 = molecular target: WNV NS1

Row | Binder | EC50 (ZIKV NS1 [1]) [ng/mL] | EC50 (ZIKV NS1 [2]) [ng/mL] | EC50 (JEV NS1) [ng/mL] | EC50 (YFV NS1) [ng/mL] | EC50 (TBEV NS1) [ng/mL] | EC50 (WNV NS1) [ng/mL]
1 | B1 | 2.44 | 2 |  |  |  | 
2 | B2 | 2.76 | 3 | 5500 | 2780 | 4610 | 3220
3 | B3 | 1.74 | 2 |  |  |  | 

From patent US20190256582A1 (published 2019)
